In experiment [1] the target is T1, PKC-ε (endogenous, human cell extracts) (human, UniProt Q02156 1-737).
T1 construct: Two bands on the blot, said to be alternate splicing variants; also called PKC-epsilon; PKC-ε Band 1
T1 sequence (looked up): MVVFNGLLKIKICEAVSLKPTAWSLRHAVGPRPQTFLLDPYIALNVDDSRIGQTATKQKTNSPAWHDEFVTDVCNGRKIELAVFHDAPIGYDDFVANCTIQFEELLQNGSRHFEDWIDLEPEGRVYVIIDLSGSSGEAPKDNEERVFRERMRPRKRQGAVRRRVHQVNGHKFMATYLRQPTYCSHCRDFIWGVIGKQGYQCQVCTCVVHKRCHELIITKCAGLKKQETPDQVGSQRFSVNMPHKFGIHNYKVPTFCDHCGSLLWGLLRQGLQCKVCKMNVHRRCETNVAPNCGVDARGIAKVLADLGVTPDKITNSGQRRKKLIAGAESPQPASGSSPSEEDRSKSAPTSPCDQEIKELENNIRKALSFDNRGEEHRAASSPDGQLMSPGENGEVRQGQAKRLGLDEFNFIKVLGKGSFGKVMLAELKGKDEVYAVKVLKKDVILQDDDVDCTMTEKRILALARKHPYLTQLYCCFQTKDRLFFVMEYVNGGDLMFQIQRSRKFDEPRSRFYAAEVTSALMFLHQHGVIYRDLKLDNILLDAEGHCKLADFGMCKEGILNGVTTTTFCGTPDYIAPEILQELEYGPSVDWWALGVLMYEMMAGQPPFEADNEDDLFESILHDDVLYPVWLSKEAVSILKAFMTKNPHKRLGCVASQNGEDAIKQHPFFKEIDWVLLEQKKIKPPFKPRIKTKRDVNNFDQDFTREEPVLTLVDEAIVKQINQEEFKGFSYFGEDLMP
As to the kind of experiment: Protocol B blot competition, IMR-32 extract, competitor anti-PKC-ε Ab, Band 1; PRE 20 µg. As to the method:
(§1) The ability of the peptides PRE 2 and PRE 3 (see Table 3) to interfere with the binding of a PKC-α-specific polyclonal antibody (Santa Cruz Biotechnology, Inc.) to PKC-α was determined using a modified version of the protocol outlined above in which the test peptide was added directly to the cell extract prior to electrophoresis at a concentration of either 5× or 15× the concentration of the protein applied to each well of the gel for the Western blots (20 μg).
(§2) Peptides PRE 2, PRE 3 and PRE 4 (see Table 3) were tested for their ability to interfere with the binding of isoform-specific polyclonal antibodies (Santa Cruz Biotechnology, Inc.) to PKC-ε using the general protocol described in Example 3. Two bands, representing alternate splicing variants of PKC-ε, were identified on the Western blot using this anti-PKC-ε antibody.

Experiment [2] concerns the target T1, PKC-ε (endogenous, human cell extracts). The experiment is described as follows: Protocol B blot competition, IMR-32 extract, competitor anti-PKC-ε Ab, Band 2; PRE 20 µg. The protocol: as §1, §2
Experiment [3] has the same target. The experiment is described as follows: Protocol B blot competition, IMR-32 extract, competitor anti-PKC-ε Ab, Band 1; PRE 100 µg. The protocol:
as §1, §2

The target is the same in experiment [4]. As to the kind of experiment: Protocol B blot competition, IMR-32 extract, competitor anti-PKC-ε Ab, Band 2; PRE 100 µg. As to the method: as §1, §2
The target is the same in experiment [5]. As to the kind of experiment: Protocol B blot competition, IMR-32 extract, competitor anti-PKC-ε Ab, Band 2; PRE 50 µg. As to the method:
as §1, §2

For experiment [6] the target is unchanged. The experiment is described as follows: Protocol B blot competition, IMR-32 extract, competitor anti-PKC-ε Ab, Band 1; PRE 50 µg. The protocol: as §1, §2
The target in experiment [7] is T2, PKC-α (endogenous, human cell lysates and cells) (human, UniProt P17252 2-672).
T2 construct: Endogenous protein of human cell lysates, on Western blot membranes (denatured) or in fixed cells; also called PKC-alpha; PKC-A
The experiment is described as follows: anti-PKC-α immunofluorescence, V5E-transfected IMR-32 cells loaded with PRE (label on PKC-α and V5E); control with endocytosis reagent 113. An excerpt:
Neuroblastoma cells from the IMR-32 cell line were stably transfected with a vector containing the V5E sequence of PKC-α as outlined above in Example 13. The V5E sequence is part of the antigenic amino acid sequence that is used to raise the commercially available anti-PKC-α isoform-specific antibody.
The peptides PRE 1, 2, 3, 4, 5, 6, 7, 8, 9, 10, 11, 12 and 13 (see Table 3) were incorporated into the transfected IMR-32 cells via pinocytic endocytosis (Molecular Probes) according to the supplier's recommendations. Following fixation and permeabilization, PKC-α was detected using an Alexa fluor secondary antibody (as described above in Example 8).

Experiment [8] has as its target T3, PKC-δ (purified isoform) (Homo sapiens (Human), UniProt Q05655 1-676).
T3 construct: also called PKC-delta; PKCdelta
The experiment is described as follows: competitive ELISA on purified PKC-δ vs anti-PKC-δ Ab; PRE 50 µM. The protocol: (§3) Greiner 96 well ELISA plates were coated with the appropriate PKC isoform diluted in PBSN (PBS with Calcium/Magnesium+0.05% Sodium azide w/w). 50 μL/well at 250 ng/mL was used. Control wells contained PBSN only. Plates were incubated overnight at 4° C.
(§4) The plates were washed 3 times with 200 μL of dH₂O per well, then 100 μL of blocking solution was added per well and the plate incubated for 1 h at 37° C. The washing steps with dH₂O were repeated and 50 μL of the appropriate PRE solution (PRE stock solution [20 mM in DMSO] diluted in PBSN) was added and the plate incubated for 1 h at room temperature.
(§5) 50 μL of 1:1000 dilution of Alkaline Phosphatase (AP) conjugated antibody (anti-rabbit for all except zeta, which was anti-goat) was then added and the plate incubated for 1 h at room temperature. Washing with dH₂O was then repeated. Finally, 100 μL of pNPP solution in pNPP buffer (2 mM MgCl₂, 100 mM Sodium bicarbonate in water, pH 9.8) was added to all wells and incubated for 8 minutes for α, βI, βII ε, and ζ, or for 15-20 mins for […] (until sufficient coloration is observed). The reaction was stopped by addition of Stop solution (2N NaOH) and the absorbance at 405 nm was read on a Galaxy Plate reader.
On the technique in general: An ELISA detects its analyte on a solid surface through an enzyme-linked reagent.

The target of experiment [9] is T3, PKC-δ (purified isoform). The experiment is described as follows: competitive ELISA on purified PKC-δ vs anti-PKC-δ Ab; PRE 100 µM. As to the method:
as §3, §4, §5

Experiment [10] concerns the target T3, PKC-δ (purified isoform). As to the kind of experiment: competitive ELISA on purified PKC-δ vs anti-PKC-δ Ab; PRE 200 µM. As to the method: as §3, §4, §5
The target of experiment [11] is T4, PKC-βII (purified isoform) (Homo sapiens (Human), UniProt P05771 2-621).
T4 construct: also called PKC-beta II
T4 sequence (P05771 other isoform, or with tags, fused parts or gaps limits assumed): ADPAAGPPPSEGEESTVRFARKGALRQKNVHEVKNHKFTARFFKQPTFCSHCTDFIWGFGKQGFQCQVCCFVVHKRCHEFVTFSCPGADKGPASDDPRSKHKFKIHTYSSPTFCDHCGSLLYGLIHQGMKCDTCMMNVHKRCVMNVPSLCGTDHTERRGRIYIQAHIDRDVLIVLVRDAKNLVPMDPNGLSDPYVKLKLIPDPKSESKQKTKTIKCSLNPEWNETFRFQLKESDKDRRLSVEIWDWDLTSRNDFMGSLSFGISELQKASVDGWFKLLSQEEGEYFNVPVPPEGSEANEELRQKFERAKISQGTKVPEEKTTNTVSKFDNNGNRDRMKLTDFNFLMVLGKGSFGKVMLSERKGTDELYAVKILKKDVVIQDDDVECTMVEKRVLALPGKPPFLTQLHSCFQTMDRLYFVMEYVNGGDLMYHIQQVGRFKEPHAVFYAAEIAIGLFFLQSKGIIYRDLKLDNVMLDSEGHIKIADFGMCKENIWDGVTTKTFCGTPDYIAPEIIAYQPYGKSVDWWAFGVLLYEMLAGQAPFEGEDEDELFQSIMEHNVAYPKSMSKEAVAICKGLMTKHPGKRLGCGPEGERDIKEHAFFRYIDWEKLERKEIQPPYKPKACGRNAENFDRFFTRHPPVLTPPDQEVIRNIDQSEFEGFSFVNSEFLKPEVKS
As to the kind of experiment: competitive ELISA on purified PKC-βII vs anti-PKC-βII Ab; PRE 200 µM. As to the method: as §3, §4, §5

Experiment [12] has as its target T4, PKC-βII (purified isoform). As to the kind of experiment: competitive ELISA on purified PKC-βII vs anti-PKC-βII Ab; PRE 100 µM. The protocol:
as §3, §4, §5

For experiment [13], the target named is T4, PKC-βII (purified isoform). The experiment is described as follows: competitive ELISA on purified PKC-βII vs anti-PKC-βII Ab; PRE 50 µM. The protocol: as §3, §4, §5
Experiment [14] has as its target T5, PKC-ζ (purified isoform) (Homo sapiens (Human), UniProt Q05513 1-592).
T5 construct: also called PKC-zeta; PKCzeta
T5 sequence: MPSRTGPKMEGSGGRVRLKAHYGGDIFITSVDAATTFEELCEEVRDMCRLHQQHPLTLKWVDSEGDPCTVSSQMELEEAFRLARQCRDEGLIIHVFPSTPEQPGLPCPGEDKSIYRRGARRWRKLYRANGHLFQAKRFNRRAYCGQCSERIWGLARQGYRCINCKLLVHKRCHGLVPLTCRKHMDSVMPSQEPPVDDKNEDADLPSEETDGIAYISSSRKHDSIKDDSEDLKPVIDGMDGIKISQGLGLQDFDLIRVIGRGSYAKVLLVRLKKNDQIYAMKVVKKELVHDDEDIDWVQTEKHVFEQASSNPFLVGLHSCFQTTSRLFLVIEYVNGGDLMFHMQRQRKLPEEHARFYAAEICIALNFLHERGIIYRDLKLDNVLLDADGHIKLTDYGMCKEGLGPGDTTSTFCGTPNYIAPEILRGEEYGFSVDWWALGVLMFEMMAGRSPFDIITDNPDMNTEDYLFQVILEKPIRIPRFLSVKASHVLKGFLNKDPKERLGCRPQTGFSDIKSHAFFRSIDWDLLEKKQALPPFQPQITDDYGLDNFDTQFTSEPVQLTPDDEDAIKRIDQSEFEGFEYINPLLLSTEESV
The experiment is described as follows: competitive ELISA on purified PKC-ζ vs anti-PKC-ζ Ab; PRE 100 µM. As to the method:
as §3, §4, §5

Experiment [15] concerns the target T5, PKC-ζ (purified isoform). The experiment is described as follows: competitive ELISA on purified PKC-ζ vs anti-PKC-ζ Ab; PRE 50 µM. The protocol:
as §3, §4, §5

Experiment [16] has as its target T5, PKC-ζ (purified isoform). The experiment is described as follows: competitive ELISA on purified PKC-ζ vs anti-PKC-ζ Ab; PRE 200 µM. The protocol: as §3, §4, §5
Experiment [17] addresses T5, PKC-ζ (purified isoform). As to the kind of experiment: summary grade, purified isoform ELISA.

Where no end group is shown, it is not given here.

T3 sequence (Q05655 whole entry, stated change not applied, canonical isoform): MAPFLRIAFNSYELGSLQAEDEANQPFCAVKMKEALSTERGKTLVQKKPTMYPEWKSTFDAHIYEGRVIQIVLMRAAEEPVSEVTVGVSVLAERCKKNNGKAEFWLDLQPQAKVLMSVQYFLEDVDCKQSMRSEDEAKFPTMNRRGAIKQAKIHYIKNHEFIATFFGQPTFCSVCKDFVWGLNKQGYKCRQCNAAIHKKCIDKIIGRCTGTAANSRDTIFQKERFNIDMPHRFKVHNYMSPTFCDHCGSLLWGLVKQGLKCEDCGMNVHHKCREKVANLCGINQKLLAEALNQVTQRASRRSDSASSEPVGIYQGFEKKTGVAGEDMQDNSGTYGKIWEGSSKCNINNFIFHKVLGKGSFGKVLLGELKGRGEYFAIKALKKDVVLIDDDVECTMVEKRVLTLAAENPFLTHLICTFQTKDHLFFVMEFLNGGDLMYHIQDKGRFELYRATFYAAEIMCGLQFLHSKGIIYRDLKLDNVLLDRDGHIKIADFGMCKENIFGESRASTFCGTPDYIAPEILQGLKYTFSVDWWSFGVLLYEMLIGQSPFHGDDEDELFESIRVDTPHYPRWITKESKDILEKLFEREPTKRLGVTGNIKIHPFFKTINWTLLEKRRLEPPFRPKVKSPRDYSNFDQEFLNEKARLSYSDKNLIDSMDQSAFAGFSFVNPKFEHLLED

B1: PRE 2 (peptide)
peptide: KDAQNLIGISL-NH2
notes: Synthetic peptide; also called peptide PRE 2
On to B1, for which the band intensity worked out at 323 in [1]; 160 in experiment [2]; 0 in [3]; 0 in [4]; 0 in [5]; 0 in experiment [6]. Besides, the “inhibition (%)” value in experiment [1] amounted to 23.4%; in experiment [2], 38.6%; in experiment [3] it was 100%; in [4], 100%; in experiment [5] it was 100%; in experiment [6] it was 100%. For the same molecule, the “relative intensity (%)” value stood at 76.6% in experiment [1]; 61.4% in [2]; 0% in experiment [3]; 0% in experiment [4]; 0% in [5]; 0% in experiment [6].

B2: PRE 5 (peptide)
peptide: Ac-AKGIQEVKGGKDAQNLIGISI-NH2
notes: Synthetic peptide; also called peptide PRE 5
With B2, the “Relative Fluorescence Intensity” value in experiment [7] is 124. The “binding capacity (%)” value with PKC-δ (purified isoform) [8] was determined as 0.2%; with PKC-δ (purified isoform) [9], 0%; with PKC-δ (purified isoform) [10] it was 4.31%.

B3: PRE 10 (peptide)
peptide: Ac-ISIGILNQADK-NH2
notes: Synthetic peptide; also called peptide PRE 10
With B3, the “binding capacity (%)” value in experiment [11], in experiment [12] and in [13] was 0% throughout. Moreover, the “Relative Fluorescence Intensity” value in experiment [7] was determined as 122.

B4: PRE 8 (peptide)
peptide: ILEDKGGDAQNLIGISI
notes: Synthetic peptide; termini given free; also called peptide PRE 8
For the molecule B4, the “binding capacity (%)” value is 0% with PKC-ζ (purified isoform) [14]; 0% in the experiment with PKC-ζ (purified isoform) [15]; 0% in the experiment with PKC-ζ (purified isoform) [16]; 6.96% with PKC-δ (purified isoform) [8]; 3.38% in the experiment with PKC-δ (purified isoform) [9]; 6.68% with PKC-δ (purified isoform) [10]. Further, in experiment [7], the “Relative Fluorescence Intensity” value amounted to 81. The binding result in the experiment with PKC-ζ (purified isoform) [17] is “no binding (tested: 200 µM)”.

These data come from US20100041597A1 (published 2010).
